Test results published in PMC4066776, “Molecular determinants of the DprA−RecA interaction for nucleation on ssDNA” (Nucleic Acids Research, 2014).

Tests used:
[1] = biological target: the molecule itself; experiment: SAXS; scattering curve of 5KA DprA in solution superimposed on that of WT DprA (the latter taken from ref. 18)
[2] = biological target: T1, S. pneumoniae RecA lacking the first 28 residues (Δ28), purified (S. pneumoniae, UniProt P0A451 29-388); experiment: pull-down; pull-down on magnetic beads using purified proteins; which partner was on the beads is told only in the supplementary methods; settings: both partners purified
T1 construct: RecA, Streptococcus pneumoniae, locus Sp1940, the 28 first residues removed; also called Δ28RecA; source: E. coli, purified (Ni-NTA column, gel filtration)

B1: S. pneumoniae DprA K119A/K144A/K175A/K202A/K225A (5KA), purified (natural protein)
chain: MKITNYEIYKLKKSGLTNQQILKVLEYGENVDQELLLGDIADISGCRNPAVFMERYFQIDDAHLSKEFQKFPSFSILDDCYPWDLSEIYDAPVLLFYKGNLDLLKFPKVAVVGSRACSAQGAKSVEKVIQGLENELVIVSGLAAGIDTAAHMAALQNGGKTIAVIGTGLDVFYPAANKRLQDYIGNDHLVLSEYGPGEQPLAFHFPARNRIIAGLCRGVIVAEAAMRSGSLITCERAMEEGRDVFAIPGSILDGLSDGCHHLIQEGAKLVTSGQDVLAEFEF
notes: DprA, Streptococcus pneumoniae, locus Sp1266, five lysines K119/K144/K175/K202/K225 mutated to alanines; also called 5KADprA; 5KA mutant; source: E. coli, purified (Ni-NTA column, gel filtration)
[1]
  stoichiometry N: 2
[2]
  binding result: binds
